Where two headings read alike, the source gives them in different places.
B1: Fc-tagged human CD200 protein (Fc fusion)
chain: QVQVVTQDEREQLYTPASLKCSLQNAQEALIVTWQKKKAVSPENMVTFSENHGVVIQPAYKDKINITQLGLQNSTITFWNITLEDEGCYMCLFNTFGFGKISGTACLTVYVQPIVSLHYKFSEDHLNITCSATARPAPMVFWKVPRSGIENSTVTLSHPNGTTSVTSILHIKDPKNQVGKEVICQVLHLGTVTDFKQTVNKG
notes: also called hCD200; not shown: Fc tag

Experiments:
[1] = molecular target: B1; test: BLI (Octet), Fc-tagged hCD200 captured on anti-human Fc sensor, soluble CD200R1a as analyte, 1:1 fit
[2] = molecular target: T1, human CD200R1a protein (soluble recombinant) (human, UniProt Q8TD46 29-265); test: BLI in-tandem competition on His-captured human CD200R1a; row = 1st Ab (400 nM); competitor (2nd Ab) PR006207
T1 construct: Soluble protein used in BLI; also called human CD200R1 isoform a; not shown: His tag implied by capture on anti-Penta-HIS biosensors
T1 sequence: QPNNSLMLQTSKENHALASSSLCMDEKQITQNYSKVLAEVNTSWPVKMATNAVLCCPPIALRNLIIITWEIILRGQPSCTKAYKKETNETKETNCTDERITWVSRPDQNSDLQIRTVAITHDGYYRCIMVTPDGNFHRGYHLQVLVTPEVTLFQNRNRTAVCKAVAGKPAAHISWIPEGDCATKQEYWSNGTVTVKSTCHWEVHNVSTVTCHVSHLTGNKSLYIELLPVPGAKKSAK
Protocol: (§1) To determine if the anti-CD200R1 antibodies bind to human CD200R1a on different or approximate binding epitopes, epitope competition experiments for the anti-CD200R1 antibodies were performed by the ForteBlio Octet® RED96e platform. […] The in-tandem competition assay format was applied, and it contained two association steps. Firstly, the antigen-loaded biosensors bound to each antibody (i.e., First antibody, 1st Ab) at a saturating concentration of 400 nM for 300 seconds to reach equilibrium and then secondly bound to the competing antibodies (i.e., Second antibody, 2nd Ab) of 400 nM for 300 seconds. The second binding signals are recorded as the 100% signal of each antibody when the first antibodies are replaced by kinetic buffer. All the binding data were analyzed using ForteBlio Data Analysis 11.0 software. The inhibition rate was calculated by the following formula: […]

[3] = molecular target: T1, human CD200R1a protein (soluble …); test: BLI in-tandem competition on His-captured human CD200R1a; row = 1st Ab (400 nM); competitor (2nd Ab) PR007221
Protocol: as §1

[4] = molecular target: T1, human CD200R1a protein (soluble …); test: BLI in-tandem competition on His-captured human CD200R1a; row = 1st Ab (400 nM); competitor (2nd Ab) PR007223
Protocol: as §1

[5] = molecular target: T1, human CD200R1a protein (soluble …); test: BLI in-tandem competition on His-captured human CD200R1a; row = 1st Ab (400 nM); competitor (2nd Ab) PR007973
Protocol: as §1

[6] = molecular target: T1, human CD200R1a protein (soluble …); test: BLI (Octet), Fc-tagged hCD200 captured on anti-human Fc sensor, soluble CD200R1a as analyte, 1:1 fit
[7] = molecular target: T2, CD200R1a on PathHunter Jurkat CD200R1a signaling cells (Eurofins DiscoverX, 93-1136C19) (human, UniProt Q8TD46 25-348); test: cell-based or functional assay
T2 sequence: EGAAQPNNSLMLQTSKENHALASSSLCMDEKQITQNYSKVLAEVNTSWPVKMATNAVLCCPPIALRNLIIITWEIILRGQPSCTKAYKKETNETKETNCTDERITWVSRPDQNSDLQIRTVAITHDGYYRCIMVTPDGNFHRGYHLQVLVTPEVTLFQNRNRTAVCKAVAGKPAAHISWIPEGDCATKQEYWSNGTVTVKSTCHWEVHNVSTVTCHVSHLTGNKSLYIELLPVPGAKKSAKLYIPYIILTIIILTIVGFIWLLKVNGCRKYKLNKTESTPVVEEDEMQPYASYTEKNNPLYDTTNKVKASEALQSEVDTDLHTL

[8] = molecular target: T2, CD200R1a on PathHunter Jurkat CD200R1a …; test: cell-based or functional assay; remark: listed apart in the source
[9] = molecular target: T3, human CD200R1 isoform a on CHOK1 cells (CHOK1/hCD200R1a) (human, UniProt Q8TD46 25-348); test: flow cytometry, CHOK1/hCD200R1a cells (FITC-Mean); table beside the curves
T3 construct: also called CHOK1/CD200R1a
T3 sequence: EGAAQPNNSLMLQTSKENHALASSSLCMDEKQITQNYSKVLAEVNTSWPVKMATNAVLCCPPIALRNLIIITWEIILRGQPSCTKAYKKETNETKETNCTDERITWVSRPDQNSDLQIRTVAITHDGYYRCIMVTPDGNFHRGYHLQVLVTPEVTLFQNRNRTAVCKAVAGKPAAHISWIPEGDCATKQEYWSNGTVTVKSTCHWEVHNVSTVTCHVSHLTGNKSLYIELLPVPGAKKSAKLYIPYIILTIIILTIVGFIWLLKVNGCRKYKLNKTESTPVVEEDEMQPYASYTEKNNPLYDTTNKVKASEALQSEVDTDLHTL
Protocol: This example is intended to investigate the in vitro binding activity of human anti-CD200R1 monoclonal antibodies to human/Cynomolgus macaques CD200R1a expressed on the surface of cells. The anti-CD200R1 antibodies were produced as described in Example 3.4 and the binding experiments at the cell level were performed using CHOK1/hCD200R1a and CHOK1-cynoCD200R1a.
Briefly, CHOK1/hCD200R1a cells and CHOK1-cynoCD200R1a cells were digested, and collected, and then were resuspended in PBS containing 2% BSA, respectively. The cell density was adjusted to 1×10⁶ cells/mL. The cells were seeded in a 96-well V-bottom plate (Corning, #3894) at 100 μL/well, followed by the addition of test antibodies and reference antibodies in a series diluted concentration, each at 100 μL/well. The cells were incubated away from light at 4° C. for 1 h. Thereafter, the cells in each well were rinsed twice with 100 μL of pre-cooled PBS containing 2% BSA, and centrifuged at 500 g at 4° C. for 5 min, and then the supernatant was discarded. 100 μL of fluorescent secondary antibody (Alexa Fluor 488-conjugated AffiniPure Goat Anti-Human IgG, Fcγ Fragment Specific, Jackson, #109-545-098, diluted in a 1:1000 ratio) was added in each well, and the plate was incubated away from light at 4° C. for 1 h. The cells in each well were rinsed twice with 100 μL of pre-cooled PBS containing 2% BSA, and centrifuged at 500 g at 4° C. for 5 min, and then the supernatant was discarded. Finally, the cells in each well were resuspended in 200 μL of pre-cooled PBS containing 2% BSA, and the fluorescence signal values were read using a BD CantoII flow cytometer.

[10] = molecular target: T4, Cynomolgus macaques CD200R1 isoform a on CHOK1 cells (CHOK1/cynoCD200R1a) (Cynomolgus macaques); test: flow cytometry, CHOK1/cynoCD200R1a cells (APC-A Mean); table beside the curves
T4 chain: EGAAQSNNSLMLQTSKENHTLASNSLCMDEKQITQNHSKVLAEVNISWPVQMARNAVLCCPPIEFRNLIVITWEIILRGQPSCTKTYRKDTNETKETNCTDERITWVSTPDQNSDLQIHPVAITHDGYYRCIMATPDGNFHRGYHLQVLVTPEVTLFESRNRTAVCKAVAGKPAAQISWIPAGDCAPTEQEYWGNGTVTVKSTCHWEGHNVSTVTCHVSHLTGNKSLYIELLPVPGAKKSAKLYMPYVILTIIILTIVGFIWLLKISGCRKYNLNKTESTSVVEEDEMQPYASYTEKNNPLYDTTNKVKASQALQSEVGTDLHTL

[11] = molecular target: T3, human CD200R1 isoform a on CHOK1 cells …; test: flow cytometry blocking assay: biotin-labelled human CD200 binding to CHOK1/hCD200R1a cells; y axis Inhibition %
Protocol: (§2) In brief, CHOK1/hCD200R1a cells were digested and resuspended in 2% BSA in PBS. […] The cells were placed at 4° C. and incubated for 1 hour in the dark. […] 100 μL/well of pre-cooled PBS containing 2% BSA was added to rinse the cells twice, centrifugation was performed at 500 g, 4° C. for 5 minutes, and the supernatant was discarded. Fluorescent secondary antibody (PE Streptavidin, BD, Cat #: 554061, 1:200) was added at 100 μL/well, and incubation was performed at 4° C. for 30 minutes in the dark. The cells were washed twice with 200 μL/well of pre-cooled PBS, and were centrifuged at 500 g, 4° C. for 5 minutes, and the supernatant was discarded. Finally, 200 μL/well of pre-cooled PBS was used to resuspend the cells, and the fluorescence signal values were read using ACEA Novocyte 3000 flow cytometer. IC50 values were calculated.

[12] = molecular target: T3, human CD200R1 isoform a on CHOK1 cells …; test: flow cytometry, CHOK1/hCD200R1a cells (FITC-Mean); table beside the curves, head without unit, x axis Log [Ab] (nM)
[13] = molecular target: T3, human CD200R1 isoform a on CHOK1 cells …; test: flow cytometry blocking assay: antibody titrated against biotin-labelled human CD200 binding to CHOK1/hCD200R1a cells; head prints EC50 without unit, x axis Log [Ab] (nM), y axis Inhibition %
Protocol: as §2

EC50 [10] [nM]	MFI (MAX) [10]	Binder	IC50 of the inhibition of CD200-induced PathHunter Jurkat CD200R1a luminescence (CHOK1/hCD200 cells as CD200 source) [7] [nM]	MFI(Max) [9]	Blocking(Max) [11] [%]	EC50 [12] [nM]	EC50 [13] [nM]	also measured
		Cyno CD200R1a-His (receptor, Soluble protein used in BLI; also called Cynomolgus macaques CD200R1a recombinant protein; not shown: His tag) EGAAQSNNSLMLQTSKENHTLASNSLCMDEKQITQNHSKVLAEVNISWPVQMARNAVLCCPPIEFRNLIVITWEIILRGQPSCTKTYRKDTNETKETNCTDERITWVSTPDQNSDLQIHPVAITHDGYYRCIMATPDGNFHRGYHLQVLVTPEVTLFESRNRTAVCKAVAGKPAAQISWIPAGDCAPTEQEYWGNGTVTVKSTCHWEGHNVSTVTCHVSHLTGNKSLYIELLPVPGAKKSAK						Kd [1]: 197 nM; koff [1]: 0.0316 s⁻¹; kon [1]: 161000 M⁻¹ s⁻¹
		PR006207 (antibody, human IgG1, kappa, L234A L235A, V domains shown, also called recombinant antibody of I-4P) VH: QVQLVQSGAEVKKPGASVKVSCKASGFSFSSGYYMAWVRQAPGQGLEWMGLIGVGSGSLWYAQKFQGRVTMTRDTSTSTVYMELSSLRSEDTAVYYCARHFALSDPFNLWGQGTLVTVSS VL: EIVLTQSPDFQSVTPKEKVTITCQASESIDSYLLWYQQKPDQSPKLLIKQASTLASGVPSRFSGSGSGTDFTLTINSLEAEDAATYYCQNYYDISSNDFGGGTKVEIKR						Inhibition ratio (%) [2]: 97.6%; Inhibition ratio (%) [3]: -36.2%; Inhibition ratio (%) [4]: -38.6%; Inhibition ratio (%) [5]: -39.9%
		B1						Kd [6]: 77.1 nM; koff [6]: 0.0177 s⁻¹; kon [6]: 230000 M⁻¹ s⁻¹
20.5	33400	PR006895 (antibody, human IgG1, kappa, Fc variant of PR006480: human IgG1 with L234A, L235A, G237A (EU)) heavy: not shown light: DIQMTQSPPSLSASVGDRVTITCRASQSISSYLNWFQQKAGKAPKLLISATSNLQSGVPSRFSGSGSGTDFTLTISSLQPEDLATYYCQQSYSSPYTFGQGTKVEIKRTVAAPSVFIFPPSDEQLKSGTASVVCLLNNFYPREAKVQWKVDNALQSGNSQESVTEQDSKDSTYSLSSTLTLSKADYEKHKVYACEVTHQGLSSPVTKSFNRGEC	0.988	8410	49.8	0.172	0.339	IC50 of the inhibition of CD200-induced PathHunter Jurkat CD200R1a luminescence (CHOK1/hCD200 cells as CD200 source) [8]: 0.886 nM
6.86	50100	PR007442 (antibody, human IgG1, kappa, PTM variant of PR006895 (human IgG1)) heavy: not shown light: DIQMTQSPPSLSASVGDRVTITCRASQSISSYLNWFQQKAGKAPKLLISATSNLQSGVPSRFSGSGSGTDFTLTISSLQPEDLATYYCQQTLSSPYTFGQGTKVEIKRTVAAPSVFIFPPSDEQLKSGTASVVCLLNNFYPREAKVQWKVDNALQSGNSQESVTEQDSKDSTYSLSSTLTLSKADYEKHKVYACEVTHQGLSSPVTKSFNRGEC	0.844	8850	80	0.108	0.19	
